Results: US20230002494A1 (SANYOU BIOPHARMACEUTICALS, published 2023)
Positions count from the first letter of the chain named.

B1: control antibody KN035 (antibody, V domains shown)
VH: QVQLVESGGGLVQPGGSLRLSCAASGFTFSRRCKAWFRQAPGKERERVAKILTTSGSTYLADSVKGRFTISRDNSKNTVYLQMNSLRAEDTAVYYCAADSFEDPTCTLVTSSGAFQYWGQGTLVTVSS
notes: also called KN035 (control); positive control KN035
B2: NB22D-21-huVH2 (Fc fusion, not shown: a dimerising Fc or GST)
chain: EVQLVESGGGLVQPGGSLRLSCAASRTDSNINGMHWYRQAPGKGREWVGTIFIDGNTIVTDSVKGRFTISRDNAKNTLYLQMNTLRAEDTAVYYCAADVSGYGRAWGQGTTVTVSS
notes: Humanized form of NB22D-21; also called humanized antibody NB22D-21-huVH2; D21-Vh2
B3: NB22D-21-4 VHH-Fc chimeric antibody protein (Fc fusion)
chain: B2 chain with S29R, G33T, G55L
notes: not shown: human IgG1 Fc fragment, its N-terminus linked to the C-terminus of the VHH
B4: NB22D-21-17 VHH-Fc chimeric antibody protein (Fc fusion)
chain: B2 chain with D28G, N32Y, G55W
notes: as for B3
B5: NB22D-21-8 VHH-Fc chimeric antibody protein (Fc fusion)
chain: B2 chain with D28Y, N32Y, D54G, G55S
notes: as for B3
B6: NB22D-21-24 VHH-Fc chimeric antibody protein (Fc fusion)
chain: B2 chain with D28F, N32F, D54T
notes: as for B3
B7: NB22D-21-94 (Fc fusion)
chain: B2 chain with D28A, S29G, N32H, T50S, D54T, S100R
notes: not shown: 'full-length antibodies' were constructed
B8: NB22D-21-45-106 (Fc fusion)
chain: B2 chain with T27R, D28W, N32H, T50S, I51R, D54T, S100R
notes: as for B7
B9: NB22D-21-109 (Fc fusion)
chain: B2 chain with D28A, S29G, N30Y, N32H, T50M, I53G, D54W, S100R
notes: as for B7
B10: NB22D-21-154 (Fc fusion)
chain: B2 chain with D28A, I31A, N32M, T50M, I53R, S100R
notes: as for B7
B11: NB22D-21-123 (Fc fusion)
chain: B2 chain with R26P, D28A, N32H, T50M, D54T, N56L
notes: as for B7
B12: SY01-208 (VHH lysate) (VHH)
VHH: B2 chain with A24H, N32F, G55A
notes: Tested as VHH lysate of a monoclone from the phage display vector
B13: SY01-NB-027-M (VHH lysate) (VHH)
VHH: B2 chain with A24H, G33S, I51W, V99E, S100W, G101M
notes: as for B12
B14: SY01-201 (VHH lysate) (VHH)
VHH: B2 chain with A24H, N32H, G55L
notes: as for B12
B15: NB22D-21-huVH1 (Fc fusion, not shown: a dimerising Fc or GST)
chain: B2 chain with A24H
notes: Humanized form of NB22D-21; also called humanized antibody NB22D-21-huVH1
B16: 47 (VHH)
VHH: B2 chain with D28L, N32R, G55L
notes: also called SY01-D21-47
B17: SY01-D21-8 (VHH lysate) (VHH)
VHH: B2 chain with D28Y, N32Y, D54G, G55S
B18: SY01-D21-24 (VHH lysate) (VHH)
VHH: B2 chain with D28F, N32F, D54T

Target: T1, human PD-L1 (full-length, on cells) (human, UniProt Q9NZQ7 19-290)
T1 construct: whole, on cells; Expressed on CHO-s cells; also called human PD-L1-CHO; PD-L1-CHO
Experiment: FACS, human PD-L1-CHO cells

T1 sequence (Q9NZQ7 19-290): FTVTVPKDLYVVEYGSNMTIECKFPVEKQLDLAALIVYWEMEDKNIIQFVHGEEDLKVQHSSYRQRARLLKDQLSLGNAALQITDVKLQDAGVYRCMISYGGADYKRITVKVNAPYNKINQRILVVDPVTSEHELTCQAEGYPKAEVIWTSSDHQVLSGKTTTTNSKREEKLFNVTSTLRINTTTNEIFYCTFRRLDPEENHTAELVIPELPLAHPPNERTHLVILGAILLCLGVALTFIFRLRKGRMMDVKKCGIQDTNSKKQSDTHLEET

Row | Binder | EC50
1 | B1 | 0.39 µg/mL

Target: T1, human PD-L1 (full-length, on cells)
Experiment: FACS, human PD-L1-CHO cells
Remark: another data set of the same source
From the text: (§1) In order to evaluate 4 derisked VHH-Fc candidate antibodies, an FACS method is used to detect the binding activities thereof to cell expressed human PD-L1 and monkey PD-L1 proteins.

Row | Binder | EC50
2 | B2 | 0.72 µg/mL
3 | B3 | 0.21 µg/mL
4 | B4 | 1.73 µg/mL
5 | B5 | 0.26 µg/mL
6 | B6 | 0.14 µg/mL

Target: T2, rhesus monkey PD-L1 (full-length, on CHO-s cells) (rhesus monkey, UniProt F6VEW6 19-290)
T2 construct: whole, on cells; also called monkey PD-L1-CHO
Experiment: FACS, monkey PD-L1-CHO cells
From the text: In order to evaluate the cross-reactivity of the VHH-Fc candidate antibodies to monkey PD-L1 and mouse PD-L1, an FACS method is used to detect the binding activity thereof to the mouse and rhesus monkey PD-L1 protein on cells.

Row | Binder | EC50
7 | B1 | 0.21 µg/mL

Target: T2, rhesus monkey PD-L1 (full-length, on …)
Experiment: FACS, monkey PD-L1-CHO cells
Remark: another data set of the same source
From the text: as §1

Row | Binder | EC50
8 | B2 | 1.82 µg/mL
9 | B3 | 0.3 µg/mL
10 | B4 | 3.25 µg/mL
11 | B5 | 0.7 µg/mL
12 | B6 | 0.39 µg/mL

Target: T1, human PD-L1 (full-length, on cells)
Experiment: FACS on huPD-L1-CHOK cells

Row | Binder | EC50 (read off the curve)
13 | B1 | ~0.2 µg/mL
14 | B7 | ~0.2 µg/mL
15 | B3 | ~0.2 µg/mL
16 | B8 | ~0.2 µg/mL
17 | B9 | ~0.2 µg/mL
18 | B10 | ~0.2 µg/mL
19 | B11 | ~0.2 µg/mL

Target: T3, mouse PD-L1 (full-length, on CHO-s cells) (mouse, UniProt Q9EP73 19-290)
T3 construct: whole, on cells; also called mouse PD-L1-CHO
Experiment: FACS on mouse PD-L1-CHOK cells

T3 sequence (Q9EP73 19-290): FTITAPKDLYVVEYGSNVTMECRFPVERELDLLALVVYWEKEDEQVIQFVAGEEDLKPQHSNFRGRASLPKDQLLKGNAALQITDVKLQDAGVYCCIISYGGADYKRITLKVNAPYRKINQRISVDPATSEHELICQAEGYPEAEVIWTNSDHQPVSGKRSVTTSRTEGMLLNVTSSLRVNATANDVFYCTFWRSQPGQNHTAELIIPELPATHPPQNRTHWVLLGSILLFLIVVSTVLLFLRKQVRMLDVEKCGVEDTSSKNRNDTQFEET

Row | Binder | binding result | EC50 (read off the curve)
20 | B3 | no binding (tested: 20 µg/mL) | 
21 | B8 | binds | 
22 | B9 |  | ~1 µg/mL
23 | B10 | binds | 
24 | B11 | binds | 

Target: T1, human PD-L1 (full-length, on cells)
Experiment: FACS on PD-L1-CHO cells, anti-Llama IgG FITC

Row | Binder | binding result
25 | B12 | binds
26 | B13 | binds
27 | B14 | binds

Target: T1, human PD-L1 (full-length, on cells)
Experiment: FACS on human PD-L1-CHO cells, PE anti-human IgG Fc
From the text: 1) collecting the cultured human PD-L1-CHO cells, centrifuging the collected cells at 300 g to remove the supernatant, resuspending the cells in a formulated FACS buffer and counting the cells, and adjusting the density of the cell suspension to 2×10⁶ cells/mL;

Row | Binder | EC50 (read off the curve)
28 | B1 | ~0.1 µg/mL
29 | B2 | ~0.1 µg/mL
30 | B15 | ~0.1 µg/mL

Target: T1, human PD-L1 (full-length, on cells)
Experiment: FACS competition, human PD-L1-CHO cells, competitor biotin-labeled CD80 1 µg/mL

Row | Binder | IC50
31 | B1 | 0.631 µg/mL

Target: T1, human PD-L1 (full-length, on cells)
Experiment: FACS competition, human PD-L1-CHO cells, competitor biotin-labeled PD-1-Fc 1 µg/mL

Row | Binder | IC50
32 | B1 | 0.39 µg/mL

Target: T1, human PD-L1 (full-length, on cells)
Experiment: as above
Remark: another data set of the same source

Row | Binder | IC50
33 | B2 | 1 µg/mL
34 | B3 | 0.3 µg/mL
35 | B6 | 0.2 µg/mL

Target: T1, human PD-L1 (full-length, on cells)
Experiment: FACS blocking on huPDL1-CHO cells; blocked ligand PD-1-Biotin 1 µg/mL; MFI = bound PD-1

Row | Binder | IC50 (read off the curve)
36 | B1 | ~0.2 µg/mL
37 | B7 | ~0.2 µg/mL
38 | B3 | ~0.2 µg/mL
39 | B8 | ~0.2 µg/mL
40 | B9 | ~0.2 µg/mL
41 | B10 | ~0.2 µg/mL
42 | B11 | ~0.2 µg/mL

Target: T1, human PD-L1 (full-length, on cells)
Experiment: FACS blocking on PD-L1-CHO cells, lysate samples; the blocked ligand is not named on the sheet or in Example 17

Row | Binder | IC50 (read off the curve)
43 | B16 | ~0.3 µg/mL
44 | B17 | ~0.3 µg/mL
45 | B18 | ~0.5 µg/mL
